In PMC9313494 (2022):

Target: Lys-Nle peptide (norleucine (Nle) residues (Nle12 named); D-residues (D-Lys1, D-Lys8 named); terminal thiol group)
Assay: SPR

B1: bone morphogenetic protein-2 (BMP-2) (ligand)
chain: QAKHKQRKRLKSSCKRHPLYVDFSDVGWNDWIVAPPGYHAFYCHGECPFPLADHLNSTNHAIVQTLVNSVNSKIPKACCVPTELSAISMLYLDENEKVVLKNYQDMVVEGCGCR
- koff: 0.00973 s⁻¹
